Assay results taken from the supplement of paper PMC10201428.
± gives the standard deviation of the averaged measurements.

What was measured:
[1] = tested on: VchCAST RNA-guided transposition machinery (E. coli BL21(DE3) host, lacZ target); assay: relative integration efficiency (T-LR orientation) vs wild-type transposon end (log2 (normalized fold change)); transposon end mutated: right end (5 bp flank + 75 bp right end); higher = more efficient transposition
Summary of the method: (§1)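 A T7-driven effector plasmid encoding a CRISPR array, tniQ-cas8-cas7-cas6 and tnsA-tnsB-tnsC was co-transformed into E. coli BL21(DE3) together with a pUC57 mini-transposon donor holding barcoded pools of 1549 left-end or 1849 right-end variants. Transformants were plated with 0.1 mM IPTG at 37°C for 18 h. Illumina sequencing of PCR-amplified input plasmids and genomic integration junctions gave barcode abundances, and relative integration efficiency is their output/input fold change, normalised to reference barcodes and log-transformed.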

[2] = tested on: VchCAST RNA-guided transposition machinery (E. coli BL21(DE3) host, lacZ target); assay: relative integration efficiency (T-RL orientation) vs wild-type transposon end (log2 (normalized fold change)); transposon end mutated: right end (5 bp flank + 75 bp right end); higher = more efficient transposition
Summary of the method: as §1

ACATTTGTACTAACAACCATAAAATGATAATTACACCCATAAATTGATAATTATCACACCCATAAATTGATATTGCCTCTGATCATAGTCAGACCAACATTGCTACGACCCGTATTCGCACCGACAC
relative integration efficiency (log2) [1]: -4.23 ± 0.45
relative integration efficiency (log2) [2]: -1.43 ± 0.32

ACATTTGTAGAAAAAACCATACGTTGATTTTACGAAACCATACGCTGAAATAATCACACCCATAAATTGATATTGCCTCTGATCATAGTCAGACCAACATTGCTACGACCCGTATTCGCACCGACAC
relative integration efficiency (log2) [1]: -5.68 ± 1.4
relative integration efficiency (log2) [2]: -6.62 ± 0.1

ACATTTGTAGATAAAACCATACGTTGATTTTACGAAACCATACGCTGAAATAATCACACCCATAAATTGATATTGCCTCTGATCATAGTCAGACCAACATTGCTACGACCCGTATTCGCACCGACAC
relative integration efficiency (log2) [1]: -5.26 ± 0.89
relative integration efficiency (log2) [2]: -6.57 ± 0.4

ACATTTGTCAACCATAAAATGATAATTACACCCATAAATTGATAATTATCACACCCATAAATTGATATTGCCTCTGATCATAGTCAGACCAACATTGCTACGACCCGTATTCGCACCGACACTGACT
relative integration efficiency (log2) [1]: -4.8 ± 0.66
relative integration efficiency (log2) [2]: -6.76 ± 0.31

ACATTTGTCGATACAACCATAAAACGATAATTACACCCATAAATGGATAATTATCACACCCAATTTAACTATAACGCTCTGATCATAGTCAGACCAACATTGCTACGACCCGTATTCGCACCGACAC
relative integration efficiency (log2) [1]: 1.85 ± 0.05
relative integration efficiency (log2) [2]: -1.19 ± 0.15

ACATTTGTCGATACAACCATAAAACGATAATTACACCCATAAATGGATCATTATCACACCCAATTTAACTATAACGCTCTGATCATAGTCAGACCAACATTGCTACGACCCGTATTCGCACCGACAC
relative integration efficiency (log2) [1]: 0.741 ± 0.05
relative integration efficiency (log2) [2]: -1.91 ± 0.19

ACATTTGTCGATACAACCATAAAACGATAATTACACCCATAAATTCATAATTATCACACCCAATTTAACTATAACGCTCTGATCATAGTCAGACCAACATTGCTACGACCCGTATTCGCACCGACAC
relative integration efficiency (log2) [1]: 1.06 ± 0.15
relative integration efficiency (log2) [2]: -2.45 ± 0.33

ACATTTGTCGATACAACCATAAAACGATAATTACACCCATAAATTCATCATTATCACACCCAATTTAACTATAACGCTCTGATCATAGTCAGACCAACATTGCTACGACCCGTATTCGCACCGACAC
relative integration efficiency (log2) [1]: 1.48 ± 0.17
relative integration efficiency (log2) [2]: -2.2 ± 0.19

ACATTTGTCGATACAACCATAAAACGATAATTACACCCATAAATTGATAATTATCACACCCAATTTAACTATAACGCTCTGATCATAGTCAGACCAACATTGCTACGACCCGTATTCGCACCGACAC
relative integration efficiency (log2) [1]: 2.07 ± 0.094
relative integration efficiency (log2) [2]: -1.38 ± 0.25

ACATTTGTCGATACAACCATAAAACGATAATTACACCCATAAATTGATCATTATCACACCCAATTTAACTATAACGCTCTGATCATAGTCAGACCAACATTGCTACGACCCGTATTCGCACCGACAC
relative integration efficiency (log2) [1]: 1.9 ± 0.036
relative integration efficiency (log2) [2]: -1.88 ± 0.3

ACATTTGTCGATACAACCATAAAATGATAATTACACCCATAAATGGATAATTATCACACCCAATTTAACTATAACGCTCTGATCATAGTCAGACCAACATTGCTACGACCCGTATTCGCACCGACAC
relative integration efficiency (log2) [1]: 1.69 ± 0.097
relative integration efficiency (log2) [2]: -1.05 ± 0.18

ACATTTGTCGATACAACCATAAAATGATAATTACACCCATAAATGGATAATTATCACCCCCAATTTAACTATAACGCTCTGATCATAGTCAGACCAACATTGCTACGACCCGTATTCGCACCGACAC
relative integration efficiency (log2) [1]: 1.38 ± 0.025
relative integration efficiency (log2) [2]: -1.38 ± 0.18

ACATTTGTCGATACAACCATAAAATGATAATTACACCCATAAATGGATCATTATCACACCCAATTTAACTATAACGCTCTGATCATAGTCAGACCAACATTGCTACGACCCGTATTCGCACCGACAC
relative integration efficiency (log2) [1]: 0.97 ± 0.063
relative integration efficiency (log2) [2]: -1.61 ± 0.16

ACATTTGTCGATACAACCATAAAATGATAATTACACCCATAAATGGATCATTATCACCCCCAATTTAACTATAACGCTCTGATCATAGTCAGACCAACATTGCTACGACCCGTATTCGCACCGACAC
relative integration efficiency (log2) [1]: 1.19 ± 0.086
relative integration efficiency (log2) [2]: -1.61 ± 0.32

ACATTTGTCGATACAACCATAAAATGATAATTACACCCATAAATTCATAATTATCACACCCAATTTAACTATAACGCTCTGATCATAGTCAGACCAACATTGCTACGACCCGTATTCGCACCGACAC
relative integration efficiency (log2) [1]: 1.2 ± 0.05
relative integration efficiency (log2) [2]: -1.92 ± 0.14

ACATTTGTCGATACAACCATAAAATGATAATTACACCCATAAATTCATAATTATCACCCCCAATTTAACTATAACGCTCTGATCATAGTCAGACCAACATTGCTACGACCCGTATTCGCACCGACAC
relative integration efficiency (log2) [1]: 1.18 ± 0.19
relative integration efficiency (log2) [2]: -1.83 ± 0.51

ACATTTGTCGATACAACCATAAAATGATAATTACACCCATAAATTCATCATTATCACACCCAATTTAACTATAACGCTCTGATCATAGTCAGACCAACATTGCTACGACCCGTATTCGCACCGACAC
relative integration efficiency (log2) [1]: 1.45 ± 0.14
relative integration efficiency (log2) [2]: -2.26 ± 0.23
